Assay results: patent US8987201B2, “Black bear parathyroid hormone and methods of using black bear parathyroid hormone” (Michigan Technological University, priority 2009, dated 2015)
Marks after values point to notes of the source that are not given here. No end group written: not given here.

Columns and labels:
rats = conditions: long-term usage; cited from earlier work
ovariectomized rats = conditions: cited from earlier work
[1] = Serum calcium levels in the rat OVX dose response study; assay type: in vivo; conditions: OVX rats; not significant at the p<0.05 level
Experimental: Ninety female, 3-month old Sprague-Dawley rats were obtained. Eighty (80) of the rats were ovariectomized (OVX) and ten (10) underwent a sham OVX procedure (sham OVX) in which the ovaries were left in the animal. The OVX animals were randomly assigned into groups of ten for further experiments.
Following the actual or sham OVX procedure, all animals were untreated for 6 weeks to allow bone loss. After the 6 week period of bone loss, groups of animals were injected for a six- or eight-week period (daily for five days per week) with vehicle (saline) or 3, 10, or 30 μg/kg bear or human PTH1-34. […] The sham OVX group as well as one group of actual OVX rats were euthanized at six weeks while the remaining animals were euthanized at fourteen weeks following the OVX procedure. Samples were obtained from the euthanized animals for further analysis.

[2] = tested on: human fetal osteoblasts (hFOB); test: Serum starvation cell death in human fetal osteoblasts (trypan blue); assay type: cell-based; conditions: 100 nM for 1 hour before serum starvation for 24 hours, preliminary studies, p<0.0001
Experimental: All PTH peptides used in the current study attenuated apoptotic signaling induced by serum starvation in vitro (FIG. 19). bbPTH 1-34 reduced apoptotic signaling in pre-osteoblastic cells more than human PTH (FIG. 19). Recently, we found similar results with preliminary studies in human fetal osteoblasts (hFOB). Serum starvation for 24 hours increased cell death in hFOB (confirmed via trypan blue staining), but pretreatment of hFOB cells with 100 nM PTH 1-34 or 1-84 for 1 hour before starvation reduced percent cell death (percentage change in cell death compared to vehicle pretreatment, hPTH 1-34: −18%, bbPTH 1-34: −25%, hPTH 1-84: −17%, bbPTH 1-84: −21%; p<0.0001; data not shown). […] However, although bbPTH 1-84 was less anti-apoptotic than bbPTH 1-34 and hPTH 1-34 in vitro (FIG. 19) it caused the greatest increases in cortical and trabecular bone mass in the in vivo studies (Table 1, Table 2).

Male Swiss-Webster mice [3] = test: Trabecular bone structure and mineralization in the proximal tibia (micro-computed tomography); assay type: in vivo, mouse; conditions: 8 weeks
Excerpt: (§1) All handling procedures and experiments were approved by the Michigan Technological University Institutional Animal Care and Use Committees. Male Swiss-Webster mice were obtained from a commercial breeder (Harlan, Indianapolis, Ind.). All animals were maintained on a 12-h light/12-h dark cycle, and were permitted free access to water and food containing 0.95% calcium (Purina Rodent Diet #5001).
(§2) In the first experiment, 11 wk old mice received daily (5 days/week) subcutaneous injections of 2.5 nmol/kg PTH 1-34 (hPTH 1-34 or bbPTH 1-34) or acidic saline vehicle (0.15 M NaCl+0.001 N HCl) for 8 weeks (n=10 mice/group). In the second experiment, 12 wk old mice received daily (5 days/week) subcutaneous injections of 2.5 nmol/kg PTH 1-84 (hPTH 1-84 or bbPTH 1-84) or acidic saline vehicle for 8 weeks (n=10 mice/group). All PTH- and vehicle-treated animals received subcutaneous injections of calcein at a dosage of 10 mg/kg on days 12 and 3 before death to label mineralizing bone surfaces. Twenty-four hours following the last treatment injection, mice were sacrificed by carbon dioxide asphyxiation. Right femurs were fixed in 10% neutral buffered formalin. Left femurs were wrapped in 0.15M saline soaked gauze and stored at −20 deg C. Left tibias were stored in 70% ethanol at 4 deg C.
Trabecular bone architecture and mineralization were evaluated in the left proximal tibial metaphysis (0.7 mm distal to the growth plate) using micro-computed tomography. Tibias from experiment 1 were scanned on a μCT35 scanner (Scanco Medical AG, Basserdorf, Switzerland) at 3.5 μm (high) resolution. Tibias from experiment 2 were scanned on a μCT40 scanner (Scanco Medical AG, Basserdorf, Switzerland) at 7 μm (high) resolution. Bones were scanned in 70% ethanol. Trabecular bone volume fraction (BV/TV, %), trabecular number (Tb.N, mm^−1), trabecular thickness (Tb.Th, m), trabecular separation (Tb.Sp, m), trabecular apparent mineral density (App.Mn.Dn, mgHA/cm^3) and trabecular tissue mineral density (Mat.Mn.Dn, mgHA/cm^3) were computed using the manufacturer's software.
(§3) All bone geometrical, architectural, and mineral properties were normalized by body mass to account for potential variation in animal size (31-33). Trabecular bone properties quantified by micro-computed tomography were compared by ANOVA between vehicle, bear, and human PTH-treated mice within each study (PTH 1-34 or PTH 1-84). The microCT parameters were not directly compared between the PTH 1-34 and PTH 1-84 studies because analyses were conducted on different microCT machines. For all other bone properties, all six experimental groups (from both the PTH 1-34 and PTH 1-84 studies) were compared with ANOVA and Fisher's PLSD. A significance of p<0.05 was used for all comparisons.

Male Swiss-Webster mice [4] = test: Cortical bone mechanical properties of the femur (3-point bending); assay type: in vivo, mouse; conditions: 2.5 nmol/kg, 8 weeks
Excerpt: as §1
In the first experiment, 11 wk old mice received daily (5 days/week) subcutaneous injections of 2.5 nmol/kg PTH 1-34 (hPTH 1-34 or bbPTH 1-34) or acidic saline vehicle (0.15 M NaCl+0.001 N HCl) for 8 weeks (n=10 mice/group). In the second experiment, 12 wk old mice received daily (5 days/week) subcutaneous injections of 2.5 nmol/kg PTH 1-84 (hPTH 1-84 or bbPTH 1-84) or acidic saline vehicle for 8 weeks (n=10 mice/group). […]
Left femurs were loaded to failure in 3-point bending on an Instron mechanical testing system (Model #8872, Canton, Mass.) at a rate of 1 mm/min. […] Ultimate load was calculated using the load-deformation data from testing.
All bone geometrical, architectural, and mineral properties were normalized by body mass to account for potential variation in animal size (31-33). Trabecular bone properties quantified by micro-computed tomography were compared by ANOVA between vehicle, bear, and human PTH-treated mice within each study (PTH 1-34 or PTH 1-84). […]

Male Swiss-Webster mice [5] = test: Cortical bone mineral content (ash fraction) and geometrical properties of the femur; assay type: in vivo, mouse; conditions: femoral midshaft, 2.5 nmol/kg s.c., 8 weeks, normalized by body mass, SD in parentheses
Excerpt: as §1, §2
(§4) Following the bending test, the left femoral diaphyses were ashed in a furnace to determine mineral content (ash fraction). Right femoral diaphyses were embedded in methyl methacrylate and sectioned with a diamond saw to expose the midshaft cross-section. Images of the midshaft cross-sections were captured using a digital camera (Spot Insight QE, Diagnostic Instruments Inc., Sterling Heights, Mich.), and Scion Image analysis software (Scion Corporation, Frederick, Md.) was used to calculate the periosteal area (Ps.Ar), cortical area (Ct.Ar), and endosteal area (Es.Ar) for each sample. Cortical bone thickness (Ct.Th) was calculated in 0.1 mm increments for each anatomical quadrant and for the entire cross-section using image analysis software (Bioquant Osteo, Nashville, Tenn.). Thin sections from the midshaft of the right femur were ground to a thickness of 50 μm and mounted on glass slides. Images of calcein labels were captured at 100× magnification and periosteal and endosteal mineral apposition rates (Ps.MAR and Es.MAR, respectively) and mineralizing surfaces (Ps.MS/BS and Es.MS/MS) were quantified (Bioquant) for each femur.
as §3

Male Swiss-Webster mice [6] = test: Cortical bone dynamic histomorphometry in the femur (calcein labels); assay type: in vivo, mouse; conditions: femoral midshaft, 2.5 nmol/kg s.c., 8 weeks, SD in parentheses
Excerpt: as §1, §2, §4, §3

[7] = tested on: ovariectomized (OVX) Sprague-Dawley rats; test: In vivo effects of human PTH1-84 and bear PTH1-84 in ovariectomized rats; design: species or system rat; conditions: 2.5 nmol/kg s.c., eight weeks
Experimental: Thirty female, 2.5-month old Sprague-Dawley rats were ovariectomized (OVX) at the commercial breeding facility The OVX animals were randomly assigned into 3 groups of 10 animals per group for further experiments.
Six weeks after the OVX procedure, the rats were injected subcutaneously for an eight-week period (daily for five days per week) with vehicle (saline) or 2.5 nmol/kg bear or human PTH1-84. Animals were euthanized 24 hours after the last injection. Samples were obtained from the euthanized animals for further analysis.
Femur bending strength and proximal tibia trabecular architecture were investigated as described in Example 12.

[8] = PTH 1-84 study: 12 wk old mice, 2.5 nmol/kg s.c., proximal tibia, normalized by body mass

For CC[C@H](C)[C@H](NC(=O)[C@H](CCC(=O)O)NC(=O)[C@H](CO)NC(=O)[C@@H](NC(=O)[C@@H](N)CO)C(C)C)C(=O)N[C@@H](CCC(N)=O)C(=O)N[C@@H](CC(C)C)C(=O)N[C@@H](CCSC)C(=O)N[C@@H](Cc1cnc[nH]1)C(=O)N[C@@H](CC(N)=O)C(=O)N[C@@H](CC(C)C)C(=O)NCC(=O)N[C@@H](CCCCN)C(=O)N[C@@H](Cc1cnc[nH]1)C(=O)N[C@@H](CC(C)C)C(=O)N[C@@H](CC(N)=O)C(=O)N[C@@H](CO)C(=O)N[C@@H](CCSC)C(=O)N[C@@H](CCC(=O)O)C(=O)N[C@@H](CCCN=C(N)N)C(=O)N[C@H](C(=O)N[C@@H](CCC(=O)O)C(=O)N[C@@H](Cc1c[nH]c2ccccc12)C(=O)N[C@@H](CC(C)C)C(=O)N[C@@H](CCCN=C(N)N)C(=O)N[C@@H](CCCCN)C(=O)N[C@@H](CCCCN)C(=O)N[C@@H](CC(C)C)C(=O)N[C@@H](CCC(N)=O)C(=O)N[C@@H](CC(=O)O)C(=O)N[C@H](C(=O)N[C@@H](Cc1cnc[nH]1)C(=O)N[C@@H](CC(N)=O)C(=O)N[C@@H](Cc1ccccc1)C(=O)O)C(C)C)C(C)C [LY333334], the osteosarcoma in rats (rats) is given as “generates osteosarcoma”.

In the case of “bovine PTH 1-34 (AVSEIQFMHNLGKHLSSMERVEWLRKKLQDVHNF; Parathyroid hormone; UniProt P01268 32-65, looked up, fragment) [1-34 fragment of bovine PTH]”, the “greater bone formation response than to rat PTH 1-34” value (ovariectomized rats; daily 25 μg injections) is listed as 25% and the “greater increase in bone volume fraction during treatment” value (ovariectomized rats; injection) is listed as 37%.

In the case of “SVSEIQFMHNLGKHLSSMERVEWLRKKLQDVHNF [bbPTH 1-34, black bear PTH 1-34]”, the “serum calcium levels compared to human PTH1-34” value [1] is reported as “lower”.

B1: black bear PTH1-84 (protein, listed as Ursus americanus)
chain: SVSEIQFMHNLGKHLSSMERVEWLRKKLQDVHNFVALGAPTAHRDGGSQRPQKKEDNVLVENHQKSLGEADKADVDVLTKAKSQ
With B1 the “percentage change in cell death compared to vehicle pretreatment” value [2] was −21%, the BV/TV (Male Swiss-Webster mice [3]; PTH 1-84 study: 12 wk old mice, 2.5 nmol/kg s.c. daily 5 days/week, proximal tibia, normalized by body mass) was 2.26 %/kg and the “App. Mn. Dn” value (Male Swiss-Webster mice [3]; [8]) was 3665 mgHA/(cm^3*kg). The “Mat. Mn. Dn.” value (Male Swiss-Webster mice [3]; [8]) was 30552 mgHA/(cm^3*kg), the “Tb. N” value (Male Swiss-Webster mice [3]; [8]) was 113.8 1/mm*kg and the “Tb. Sp” value (Male Swiss-Webster mice [3]; [8]) was 8.47 mm/kg. The “Tb. Th” value (Male Swiss-Webster mice [3]; [8]) was 1.38 mm/kg, the “trabecular apparent mineral density compared to other treatments” value (Male Swiss-Webster mice [3]; mice, 2.5 nmol/kg, bbPTH 1-84 vs hPTH 1-84 p=0.019) was “highest” and the “trabecular bone volume fraction and apparent mineral density over vehicle treatment” value (Male Swiss-Webster mice [3]; mice, 2.5 nmol/kg, only this peptide) was “significantly increased over vehicle treatment”. The “bone volume fraction in the proximal tibia compared to hPTH 1-84” value (Male Swiss-Webster mice [3]; mice, 2.5 nmol/kg, p=0.013) was “greater”, the “increase in bone strength (ultimate load of the femur), bear peptide compared to the corresponding human peptide” value (Male Swiss-Webster mice [4]) was “significantly (p=0.032) greater” and the “increase of femoral ultimate load over vehicle treatment” value (Male Swiss-Webster mice [4]; only for this peptide) was “statistically significant”. For the same molecule, the Ct.Ar (Male Swiss-Webster mice [5]) was 31.7 (3.7) mm^2/kg, the Ct.Th (Male Swiss-Webster mice [5]) was 3.56 (0.42)^a mm/kg and the Es.Ar (Male Swiss-Webster mice [5]) was 26.6 (4.6) mm^2/kg. For the same molecule, the Ps.Ar (Male Swiss-Webster mice [5]) was 58.3 (5.0)^a,b mm^2/kg, the “Endosteal MAR” value (Male Swiss-Webster mice [6]) was 0.59 (0.42) and the “Endosteal MS/BS” value (Male Swiss-Webster mice [6]) was 24.5 (17.2). The “Periosteal MAR” value (Male Swiss-Webster mice [6]) was 0.62 (0.33), the “Periosteal MS/BS” value (Male Swiss-Webster mice [6]) was 31.3 (22.5) and the “bone volume fraction / trabecular bone volume” value [7] was “equivalently increase”. For the same molecule, the “increases in cortical bone strength compared to hPTH1-84” value [7] was “greater increases” and the “ultimate load of the femur compared to vehicle treatment” value [7] was “significantly (p=0.013) increased”.
